Values quoted from earlier work as cited in paper PMC2879707.

Target: F-actin (Oryctolagus cuniculus) (UniProt P68135)

For espin (from UniProt Q63618), the Kd is listed as 0.15 µM.
